From patent publication US20130079280A1

Target: Murine CD40L on the Th2 cell line D10.G4.1 (murine) (UniProt P27548)
Assay: cell-based or functional assay

Sequence of Murine CD40L on the Th2 cell line D10.G4.1 (murine) (P27548 whole entry): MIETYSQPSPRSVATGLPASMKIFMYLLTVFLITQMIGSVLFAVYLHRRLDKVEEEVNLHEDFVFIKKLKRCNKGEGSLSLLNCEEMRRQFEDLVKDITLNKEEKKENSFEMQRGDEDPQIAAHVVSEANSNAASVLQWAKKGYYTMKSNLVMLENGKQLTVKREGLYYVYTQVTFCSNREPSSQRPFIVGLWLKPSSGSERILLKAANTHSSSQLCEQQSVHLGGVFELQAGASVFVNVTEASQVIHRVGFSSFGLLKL

## MR1, anti-murine CD40L antibody
  IC50, inhibition of CD86 expression on CD19 gated B cells: 0.1 nM
